Experimental data taken from patent publication US20180327500A1 (SYMPHOGEN A S, published 2018).

Experiments:
Experiment in all cases: flow cytometry on transfected HEK293 cells;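 note: antibodies applied at 50 µg/ml, binding called specific when fluorescence exceeds the mean signal on a negative control chicken or mouse MET construct plus four SD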
Mouse Blade 1-3 = target: T1, Mouse Blade 1-3
T1 construct: human/mouse chimera on transfected HEK293 cells; also called AA 25-233
Procedure: (§1) Cut-off values defined as the average fluorescence signal of all antibodies tested at 50 μg/ml to the negative control chicken or mouse MET construct+four standard deviations were employed to discriminate background binding from specific binding for the domain exchange or blade exchange constructs.
T1 MET ECD-SV5-GPI fusion: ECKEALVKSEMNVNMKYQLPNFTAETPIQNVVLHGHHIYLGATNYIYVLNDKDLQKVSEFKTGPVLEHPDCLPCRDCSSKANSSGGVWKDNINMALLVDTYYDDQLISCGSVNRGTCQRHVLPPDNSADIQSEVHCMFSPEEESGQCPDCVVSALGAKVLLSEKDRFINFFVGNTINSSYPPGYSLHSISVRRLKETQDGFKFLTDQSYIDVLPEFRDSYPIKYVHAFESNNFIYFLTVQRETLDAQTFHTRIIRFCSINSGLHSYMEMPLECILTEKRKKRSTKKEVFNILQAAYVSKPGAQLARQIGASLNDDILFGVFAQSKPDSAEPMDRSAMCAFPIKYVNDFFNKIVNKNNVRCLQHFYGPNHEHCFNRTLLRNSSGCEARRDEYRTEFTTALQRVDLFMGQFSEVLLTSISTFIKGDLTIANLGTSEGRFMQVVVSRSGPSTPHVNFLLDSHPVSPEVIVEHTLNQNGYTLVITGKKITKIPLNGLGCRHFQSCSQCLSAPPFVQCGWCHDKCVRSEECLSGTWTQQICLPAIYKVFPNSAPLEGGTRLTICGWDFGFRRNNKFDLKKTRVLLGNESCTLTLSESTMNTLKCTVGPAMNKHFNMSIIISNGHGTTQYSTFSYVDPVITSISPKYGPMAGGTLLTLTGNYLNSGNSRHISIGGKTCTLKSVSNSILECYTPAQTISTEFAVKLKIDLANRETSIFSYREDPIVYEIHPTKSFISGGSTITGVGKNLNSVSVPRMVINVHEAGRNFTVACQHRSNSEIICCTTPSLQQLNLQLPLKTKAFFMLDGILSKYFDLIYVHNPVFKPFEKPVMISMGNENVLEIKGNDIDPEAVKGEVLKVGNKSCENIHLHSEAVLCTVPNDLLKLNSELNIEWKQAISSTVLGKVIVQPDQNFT

LS2 = target: T2, LS2
T2 construct: human/mouse chimera on transfected HEK293 cells
Procedure: as §1
T2 MET ECD-SV5-GPI fusion: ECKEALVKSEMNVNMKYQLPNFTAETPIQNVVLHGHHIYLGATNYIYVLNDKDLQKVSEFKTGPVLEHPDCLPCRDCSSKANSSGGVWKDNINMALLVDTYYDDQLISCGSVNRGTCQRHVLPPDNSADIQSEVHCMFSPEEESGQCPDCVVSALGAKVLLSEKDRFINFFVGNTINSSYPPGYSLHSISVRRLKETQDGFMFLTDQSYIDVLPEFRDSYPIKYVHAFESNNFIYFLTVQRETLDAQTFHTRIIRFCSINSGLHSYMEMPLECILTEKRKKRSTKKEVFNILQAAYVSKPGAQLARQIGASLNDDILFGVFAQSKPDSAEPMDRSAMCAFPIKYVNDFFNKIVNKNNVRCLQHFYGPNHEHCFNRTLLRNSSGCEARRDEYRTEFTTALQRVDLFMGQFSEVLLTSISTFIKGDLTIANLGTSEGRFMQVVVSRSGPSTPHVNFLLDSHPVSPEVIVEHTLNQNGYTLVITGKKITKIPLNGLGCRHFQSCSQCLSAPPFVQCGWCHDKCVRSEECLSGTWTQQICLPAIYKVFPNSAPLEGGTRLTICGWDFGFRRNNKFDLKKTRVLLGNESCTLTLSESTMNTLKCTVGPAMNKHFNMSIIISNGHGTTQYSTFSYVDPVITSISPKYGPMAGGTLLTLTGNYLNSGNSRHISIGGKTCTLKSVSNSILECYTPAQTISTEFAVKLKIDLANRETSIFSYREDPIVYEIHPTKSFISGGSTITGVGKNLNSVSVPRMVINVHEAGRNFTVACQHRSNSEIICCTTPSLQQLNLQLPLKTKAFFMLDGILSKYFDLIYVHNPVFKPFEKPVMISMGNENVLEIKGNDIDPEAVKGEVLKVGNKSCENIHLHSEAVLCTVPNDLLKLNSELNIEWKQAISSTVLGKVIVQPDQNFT

Mouse blade 2 = target: T3, Mouse blade 2
T3 construct: human/mouse chimera on transfected HEK293 cells; also called Mouse blade 2-IPT4
Procedure: as §1
T3 MET ECD-SV5-GPI fusion: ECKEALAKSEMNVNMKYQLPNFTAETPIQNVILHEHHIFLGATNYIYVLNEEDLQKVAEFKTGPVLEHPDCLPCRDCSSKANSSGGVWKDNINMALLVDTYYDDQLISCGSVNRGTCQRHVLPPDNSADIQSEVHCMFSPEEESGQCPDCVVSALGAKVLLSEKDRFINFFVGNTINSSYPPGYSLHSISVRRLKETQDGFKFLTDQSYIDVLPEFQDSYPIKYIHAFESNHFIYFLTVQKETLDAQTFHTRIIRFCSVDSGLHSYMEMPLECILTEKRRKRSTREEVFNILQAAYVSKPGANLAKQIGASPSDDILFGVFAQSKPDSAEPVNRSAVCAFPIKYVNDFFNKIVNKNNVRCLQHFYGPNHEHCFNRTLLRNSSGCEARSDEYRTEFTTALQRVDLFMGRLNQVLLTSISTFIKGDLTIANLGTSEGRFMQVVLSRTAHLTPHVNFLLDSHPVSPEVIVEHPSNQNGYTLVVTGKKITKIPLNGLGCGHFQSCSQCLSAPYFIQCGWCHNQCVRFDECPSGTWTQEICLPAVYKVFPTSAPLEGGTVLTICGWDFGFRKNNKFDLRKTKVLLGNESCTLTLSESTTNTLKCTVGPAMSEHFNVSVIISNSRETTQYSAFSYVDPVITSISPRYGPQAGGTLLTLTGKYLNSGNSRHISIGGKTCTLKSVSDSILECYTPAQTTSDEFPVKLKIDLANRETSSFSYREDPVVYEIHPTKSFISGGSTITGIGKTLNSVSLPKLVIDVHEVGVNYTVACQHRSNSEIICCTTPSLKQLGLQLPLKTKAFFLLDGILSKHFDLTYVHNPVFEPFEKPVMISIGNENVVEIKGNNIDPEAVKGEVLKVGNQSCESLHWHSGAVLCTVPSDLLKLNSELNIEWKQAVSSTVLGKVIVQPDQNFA

Measured: binding result

B1: humanized antibody 9006 (antibody, human IgG1, kappa, V domains shown)
VH: QVQLVQSGSELKKPGASVKVSCKASGYTFTNFRMNWVKQAPGQGLKWMGWINTYTGEPTYVDDLKGRFVFSLDTSVSTAYLQISSLKAEDTAVYYCARKGIARAMDYWGQGTTVTVSS
VL: DIVMTQSPDSLAVSLGERATINCKSSQSLLDSGNQKNYLAWYQQKPGQPPKLLIFGASTRESGVPDRFSGSGSGTDFTLTISSLQAEDVAVYYCQNDHSYPYTFGQGTKLEIKR
notes: also called Hu9006; hu9006
no binding (tested: 50 µg/ml): all assays above

B2: humanized antibody 9338 (antibody, human IgG1, kappa, V domains shown)
VH: QVQLVQSGAEVKKPGSSVKVSCKASGYTFTSYWMHWVRQAPGQGLEWMGYINPSSGHIENNQKFKDRVTITADKSTSTAYMELSSLRSEDTAVYYCARGRFAYWGQGTLVTVSS
VL: EIVLTQSPATLSLSPGERATLSCSASSSVSSGYLYWYQQKPGQAPRLLIYSTSNLASGIPARFSGSGSGTDFTLTISSLEPEDFAVYYCHQWSSYPFTFGSGTKLEIKR
notes: also called Hu9338; hu9338
no binding (tested: 50 µg/ml): all assays above
